Experimental data as given in patent US20070202544.

Tests used:
[1] = target: HA-tagged wild-type insulin 2 (UniProt P01326)
[2] = target: HA-tagged C96Y mutant insulin 2 (UniProt P01326)

Substance: HRD1 (from plasmid HRD1-pCMVSPORT6)
- ubiquitination of insulin-2 (IP with anti-HA, immunoblot with anti-Flag for Flag-ubiquitin) [1]: HRD1 expression did not increase the ubiquitination of wild-type insulin-2
- ubiquitination of insulin-2 (IP with anti-HA, immunoblot with anti-Flag for Flag-ubiquitin) [2]: did increase that of C96Y insulin-2
